The record followed here is publication PMC7320910 (Nature microbiology, 2020).

Values joined by “and” are separate entries in the source; they are usually repeats but may differ in a detail not shown here. Equal entries are not always repeated.

The series deals with the molecule itself. Briefly: cryo-EM structure.

Broadly, the stoichiometry N is the number of molecules, sites or subunits per partner or assembly.

B1: FliF (flagellar MS-ring protein) from Salmonella enterica serovar Typhimurium (natural protein)
chain: MSATASTATQPKPLEWLNRLRANPRIPLIVAGSAAVAIVVAMVLWAKTPDYRTLFSNLSDQDGGAIVAQLTQMNIPYRFANGSGAIEVPADKVHELRLRLAQQGLPKGGAVGFELLDQEKFGISQFSEQVNYQRALEGELARTIETLGPVKSARVHLAMPKPSLFVREQKSPSASVTVTLEPGRALDEGQISAVVHLVSSAVAGLPPGNVTLVDQSGHLLTQSNTSGRDLNDAQLKFANDVESRIQRRIEAILSPIVGNGNVHAQVTAQLDFANKEQTEEHYSPNGDASKATLRSRQLNISEQVGAGYPGGVPGALSNQPAPPNEAPIATPPTNQQNAQNTPQTSTSTNSNSAGPRSTQRNETSNYEVDRTIRHTKMNVGDIERLSVAVVVNYKTLADGKPLPLTADQMKQIEDLTREAMGFSDKRGDTLNVVNSPFSAVDNTGGELPFWQQQSFIDQLLAAGRWLLVLVVAWILWRKAVRPQLTRRVEEAKAAQEQAQVRQETEEAVEVRLSKDEQLQQRRANQRLGAEVMSQRIREMSDNDPRVVALVIRQWMSNDHE
As for B1, the “stoichiometry N” value was 33 and 34 and 32 and 35.
